Laboratory results from article PMC7251212, “Molecular Insight into TdfH-Mediated Zinc Piracy from Human Calprotectin by Neisseria gonorrhoeae” (mBio, 2020).

B1: total knockout human calprotectin (both Zn binding sites mutated) (complex)
chain 1: MLTELEKALNSIIDVYNKYSLIKGNFNAVYRDDLKKLLETECPQYIRKKGADVWFKELDINTDGAVNFQEFLILVIKMGVAANKKSNEESHKE
chain 2: MTCKMSQLERNIETIINTFNQYSVKLGHPSTLNQGEFKELVRKDLQNFLKKENKNEKVIEHIMEDLDTNADKQLSFEEFIMLMARLTWASNEKMNEGDEGPGHHHKPGLGEGTP
modifications: Positions are not printed here. They follow the cited calprotectin site-knockout constructs and fit the printed counts (4 His-Asn in site 1; 3 His-Asn plus Asp-Ser in site 2). Cys kept as wild type …
B2: total knockout hCP (complex)
chain 1: MLTELEKALNSIIDVYNKYSLIKGNFNAVYRDDLKKLLETECPQYIRKKGADVWFKELDINTDGAVNFQEFLILVIKMGVAANKKSNEESHKE
chain 2: MTCKMSQLERNIETIINTFNQYSVKLGHPSTLNQGEFKELVRKDLQNFLKKENKNEKVIEHIMEDLDTNADKQLSFEEFIMLMARLTWASNEKMNEGDEGPGHHHKPGLGEGTP
modifications: Same construct as m7. Positions come from the cited constructs and are not printed here.

What was measured:
[1] = target: T1, recombinant TdfH (Neisseria gonorrhoeae TonB-dependent transporter, NGO0952) (Neisseria gonorrhoeae, UniProt A0ACH0F8A9 1-922); experiment: ITC; Nano ITC, 25°C, 1x PBS with 0.05% DDM; TdfH (300 μl, 20 μM) in the cell, CP sample (200 μM) in 20 injections of 2.5 μl; fitted with NanoAnalyze to a two-state (multisite) model, TKO to a single-site model; conditions: both partners purified
T1 construct: TdfH, Neisseria gonorrhoeae, locus NGO0952; full-length tdfH gene, codon-optimised for E. coli; The tag of pHIS2 is not described: the N-terminal 10x His tag and TEV site are told of the modified pET20b vector, which was not the source of the protein used; also called recombinantly produced TdfH; purified TdfH; not shown: His tag (from the Ni-NTA purification)
T1 sequence: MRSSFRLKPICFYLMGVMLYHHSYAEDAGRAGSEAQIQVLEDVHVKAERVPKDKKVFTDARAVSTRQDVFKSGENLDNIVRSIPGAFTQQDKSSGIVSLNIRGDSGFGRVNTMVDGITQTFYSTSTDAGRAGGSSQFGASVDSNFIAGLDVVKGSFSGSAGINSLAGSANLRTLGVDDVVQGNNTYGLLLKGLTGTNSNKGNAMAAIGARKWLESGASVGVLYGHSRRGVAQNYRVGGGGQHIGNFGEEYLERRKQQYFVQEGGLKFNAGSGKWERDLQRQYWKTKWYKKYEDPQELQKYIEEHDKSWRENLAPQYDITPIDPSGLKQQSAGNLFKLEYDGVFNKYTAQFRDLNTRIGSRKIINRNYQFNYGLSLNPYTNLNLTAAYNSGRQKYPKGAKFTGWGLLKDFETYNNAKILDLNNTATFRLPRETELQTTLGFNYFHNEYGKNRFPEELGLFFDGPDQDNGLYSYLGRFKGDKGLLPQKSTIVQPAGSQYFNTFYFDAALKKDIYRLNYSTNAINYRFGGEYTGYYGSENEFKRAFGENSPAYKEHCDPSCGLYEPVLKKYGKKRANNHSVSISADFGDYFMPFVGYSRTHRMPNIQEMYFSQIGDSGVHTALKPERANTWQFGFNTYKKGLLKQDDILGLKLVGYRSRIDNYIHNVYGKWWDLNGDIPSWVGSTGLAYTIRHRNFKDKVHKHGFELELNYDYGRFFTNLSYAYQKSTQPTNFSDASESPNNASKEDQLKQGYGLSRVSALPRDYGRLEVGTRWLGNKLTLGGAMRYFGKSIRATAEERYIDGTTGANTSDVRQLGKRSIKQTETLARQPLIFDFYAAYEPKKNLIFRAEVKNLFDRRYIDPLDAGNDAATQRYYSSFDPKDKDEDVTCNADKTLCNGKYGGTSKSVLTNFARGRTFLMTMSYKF

TdfH = target: T2, TdfH (Neisseria gonorrhoeae, UniProt A0ACH0F8A9 1-922); experiment: ITC; CP sample (200 uM) injected into TdfH (300 ul at 20 uM) in the cell, 20 injections of 2.5 ul every 300 s, 25 C, 1x PBS with 0.05% DDM; fitted with NanoAnalyze (multi-site model; independent model for TKO); conditions: both partners purified
T2 construct: TdfH, TonB-dependent transporter of Neisseria gonorrhoeae, locus NGO0952; full-length tdfH gene, codon optimised for E. coli; In 0.05% DDM; also called recombinant TdfH; NGO0952

| Binder | Kd [1] [µM] | stoichiometry N (TdfH) |
| --- | --- | --- |
| B1 | 13 | – |
| B2 | – | 0.67 ± 0.12 |
